Numbering of substitutions follows the chain as printed. Names may count otherwise. Read-outs that look alike come from different tables or passages of the source.

Test [1] addresses T1, recombinant human OX40 Fc(kih) (human, UniProt P0DOX5 223-449 = IgG part, biotin on C-terminal Avi tag where used biotinylated).
T1 construct: antigen Fc knob chain plus Fc hole chain; also called monomeric human OX40 antigen Fc(kih) fusion; biotinylated human OX40
The test is described as follows: SPR, captured IgG, OX40 Fc(kih) analyte.
Procedure: (§1) All SPR experiments were performed on a Biacore T200 at 25° C. with HBS-EP as running buffer (0.01 M HEPES pH 7.4, 0.15 M NaCl, 3 mM EDTA, 0.005% Surfactant P20, Biacore, Freiburg/Germany).
Setup 1) Anti-human Fab antibody (Biacore, Freiburg/Germany) was directly coupled on a CM5 chip at pH 5.0 using the standard amine coupling kit (Biacore, Freiburg/Germany). The immobilization level was approximately 9000 RU. […] The dissociation was monitored for 120 seconds. Bulk refractive index differences were corrected for by subtracting the response obtained on reference flow cell.

Test [2] concerns the target T2, human OX40 on cells (human, UniProt P43489 29-277).
T2 sequence: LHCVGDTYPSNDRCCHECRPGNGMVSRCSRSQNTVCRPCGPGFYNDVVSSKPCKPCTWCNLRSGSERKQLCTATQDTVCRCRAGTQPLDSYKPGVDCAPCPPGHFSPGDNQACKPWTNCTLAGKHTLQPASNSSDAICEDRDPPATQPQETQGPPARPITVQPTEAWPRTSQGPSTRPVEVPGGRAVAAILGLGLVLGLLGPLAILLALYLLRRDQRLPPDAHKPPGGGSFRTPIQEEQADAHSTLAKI
Nature of the test: cell-based or functional assay.

The target in test [3] is T3, human fibroblast activation protein (huFAP) on cells (human, UniProt Q12884 1-760).
T3 construct: also called NIH/3T3-huFAP clone 39; NIH/3T3-huFAP clone 19
Nature of the test: flow cytometry, WM266-4 cells.

Test [4] addresses recombinant cynomolgus OX40 Fc(kih) (cynomolgus, UniProt P0DOX5 223-449 = IgG part, biotin on C-terminal Avi tag where used biotinylated). The test is described as follows: SPR, captured IgG, cyno OX40 Fc(kih) analyte.
Procedure: as §1
Anti-human Fab antibody (Biacore, Freiburg/Germany) was directly coupled on a CM5 chip at pH 5.0 using the standard amine coupling kit (Biacore, Freiburg/Germany). The immobilization level was approximately 9000 RU. […] The dissociation was monitored for 120 seconds. Bulk refractive index differences were corrected for by subtracting the response obtained on reference flow cell.
Test [5] deals with T4, recombinant human OX40 His (human).
T4 construct: ectodomain with avi and hexahistidine tag; also called human Ox40 avi His
T4 chain: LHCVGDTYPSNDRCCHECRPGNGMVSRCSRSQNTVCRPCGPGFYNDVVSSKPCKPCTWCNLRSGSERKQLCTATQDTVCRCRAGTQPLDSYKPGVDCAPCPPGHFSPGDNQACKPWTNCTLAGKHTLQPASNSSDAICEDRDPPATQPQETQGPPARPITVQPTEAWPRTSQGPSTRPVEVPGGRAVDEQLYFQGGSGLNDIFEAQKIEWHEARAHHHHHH
Nature of the test: SPR, captured IgG, OX40 His analyte.
Procedure: as §1
Setup 2) Anti-human Fc antibody (Biacore, Freiburg/Germany) was directly coupled on a CM5 chip at pH 5.0 using the standard amine coupling kit (Biacore, Freiburg/Germany). The immobilization level was approximately 8000 RU. […] The dissociation was monitored for 120 seconds. Bulk refractive index differences were corrected for by subtracting the response obtained on reference flow cell.

Test [6] concerns the target T2, human OX40 on cells. Nature of the test: flow cytometry, activated human CD4 T cells.
Procedure: Plates were centrifuged 4 minutes with 400×g and at 4° C. and supernatant was flicked off. Cell were washed once with 200 μL 4° C. cold FACS buffer (DPBS supplied with 2% FBS, 5 mM EDTA pH8 (Amresco, Cat. No. E177) and 7.5 mM Sodium azide (Sigma-Aldrich S2002)). […] Plates were washed four times with 200 μL/well 4° C. FACS buffer to remove unbound construct.
Plates where washed twice with 200 μL/well 4° C.
Test [7] addresses T2, human OX40 on cells. The test is described as follows: cell-based or functional assay. This is another data set of the same source.
Test [8] deals with T2, human OX40 on cells. The test is described as follows: flow cytometry, activated human CD4 T cells. This is another data set of the same source.
Test [9] addresses T5, recombinant human GITR Fc(kih) (human, UniProt P0DOX5 223-449 = IgG part, biotin on C-terminal Avi tag where used biotinylated).
T5 construct: also called hu GITR-Fc; human monomeric GITR-Fc fusion
The test is described as follows: SPR, captured IgG, GITR Fc(kih) analyte.
Procedure: (§2) In the same experiment, the affinities of the interaction between the GITR antibody (human IgG1 P329GLALA) to recombinant GITR (human and cyno) were determined. Anti-human Fab antibody (Biacore, Freiburg/Germany) was directly coupled on a CM5 chip at pH 5.0 using the standard amine coupling kit (Biacore, Freiburg/Germany). The immobilization level was approximately 7000 RU. The GITR antibody was captured for 90 seconds at 5 nM. […] The dissociation was monitored for 180 seconds. Bulk refractive index differences were corrected for by subtracting the response obtained on reference flow cell.

Test [10] addresses T6, recombinant cynomolgus GITR Fc(kih) (cynomolgus, UniProt P0DOX5 223-449 = IgG part, biotin on C-terminal Avi tag where used biotinylated).
T6 construct: also called cy GITR-Fc
The test is described as follows: SPR, captured IgG, GITR Fc(kih) analyte.
Procedure: as §2

Test [11] deals with T7, recombinant murine GITR Fc(kih) (murine, UniProt P0DOX5 223-449 = IgG part, biotin on C-terminal Avi tag).
T7 construct: also called mu GITR-Fc
Nature of the test: SPR Biacore T200.
Procedure: All SPR experiments were performed on a Biacore T200 at 25° C. with HBS-EP as running buffer (0.01 M HEPES pH 7.4, 0.15 M NaCl, 3 mM EDTA, 0.005% Surfactant P20, Biacore, Freiburg/Germany). In the same experiment, the species selectivity and the avidity of the interaction between the GITR binder (human IgG1 P329GLALA), and recombinant GITR (human, cyno and murine) was determined. […] Immobilization levels up to 100 resonance units (RU) were used.
Anti-GITR human IgG1 P329GLALA antibody was passed at a concentration range from 0.2 to 200 nM (4-fold dilution) with a flow of 30 μL/minute through the flow cells over 120 seconds. Complex dissociation was monitored for 180 seconds. Bulk refractive index differences were corrected for by subtracting the response obtained in a reference flow cell, where no protein was immobilized.

The target of test [12] is T3, human fibroblast activation protein …. Nature of the test: flow cytometry, WM266-4.
Procedure: In some assays WM266-4 cells were pre-labeled with PKH-26 Red Fluorescence Cell linker Kit (Sigma, Cat.-No. PKH26GL) as described in Example 2.3.2 to allow separation of these tumor cells from other cells present (e.g. human PBMC).
Plates were centrifuged 4 minutes, 400×g at 4° C. and supernatants were flicked off. Cells were washed once with 200 μL DPBS and pellets were resuspended by a short and gentle vortex. All samples were resuspended in 50 μL/well of 4° C. cold FACS buffer containing the bispecific antigen binding molecules (primary antibody) at the indicated range of concentrations (titrated) and incubated for 120 minutes at 4° C. Afterwards the cells were washed four times with 200 μL 4° C.
In test [13] the target is T8, murine FAP (His-tagged ectodomain) (mouse, UniProt P97321 27-761).
T8 construct: also called mu FAP
Nature of the test: SPR, FAP captured via anti-His, 1:1 fit, apparent KD (bivalent).
Procedure: (§3) The capacity of the bispecific constructs to bind human, murine and cynomolgus FAP was assessed by surface plasmon resonance (SPR). All SPR experiments were performed on a Biacore T200 (Biacore) at 25° C. with HBS-EP as running buffer (0.01 M HEPES pH 7.4, 0.15 M NaCl, 3 mM EDTA, 0.005% Surfactant P20, (Biacore).
(§4) Immobilization levels for the anti-His antibody of up to 18000 resonance units (RU) were used.
(§5) Following the capture step, the bispecific constructs as well as control molecules were immediately passed over the chip surface at a concentration ranging from 0.006-100 nM with a flow rate of 30 μL/minute for 280 s and a dissociation phase of 180 s. Bulk refractive index differences were corrected for by subtracting the response obtained in a reference flow cell, where no FAP was immobilized. Affinity was determined using the Langmuir 1:1 curve fitting. For bivalent binding the same 1:1 fitting was used leading to an apparent KD value.

The target of test [14] is T9, human FAP (His-tagged ectodomain) (human, UniProt Q12884 27-760).
T9 construct: SPR texts say 'human FAP' or 'His-tagged ... dimeric FAP'; also called hu FAP; human FAP (analyte 2)
The test is described as above.
Procedure: as §3, §4, §5

Test [15] concerns the target T2, human OX40 on cells. Nature of the test: flow cytometry, activated human CD4 T cells. This is another data set of the same source.
Test [16] addresses T10, cynomolgus OX40 on activated cynomolgus PBMC (cynomolgus, UniProt P43489 29-214 (human entry)).
T10 construct: whole, on cells
T10 chain: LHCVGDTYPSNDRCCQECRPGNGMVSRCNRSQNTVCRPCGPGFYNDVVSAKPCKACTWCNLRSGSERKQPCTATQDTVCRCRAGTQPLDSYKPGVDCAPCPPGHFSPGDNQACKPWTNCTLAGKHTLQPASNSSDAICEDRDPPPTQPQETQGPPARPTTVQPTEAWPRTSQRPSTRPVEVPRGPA
The test is described as follows: flow cytometry, activated cynomolgus CD4 T cells.
Procedure: Then, plates were washed four times with 200 μL/well 4° C. FACS buffer. […] Plates where washed twice with 200 μL/well 4° C.

For test [17], the target named is T11, huOX40-SNAP fusion on Hek293 EBNA cells (human, UniProt P43489 29-277, labeled with the FRET donor Terbium).
T11 construct: not shown: SNAP tag
T11 sequence: T2 sequence
Nature of the test: cell FRET competition against d2-labeled (49B4) IgG.

Test [18] concerns the target T8, murine FAP (His-tagged ectodomain). The test is described as follows: SPR, FAP captured via anti-His, 1:1 fit.
Procedure: as §3, §4, §5
Test [19] concerns the target T12, cynomolgus FAP (His-tagged ectodomain) (cynomolgus, UniProt Q12884 27-760 (human entry)).
T12 construct: also called cynoFAP
Nature of the test: SPR, FAP captured via anti-His, 1:1 fit.
Procedure: as §3, §4, §5

For test [20], the target named is T9, human FAP (His-tagged ectodomain). The test is described as follows: SPR, FAP captured via anti-His, 1:1 fit.
Procedure: as §3, §4, §5
For test [21], the target named is T13, mouse 4-1BB on activated mouse splenocytes (mouse, UniProt P20334 24-256). Nature of the test: flow cytometry, activated murine CD8 T cells.
T13 sequence (P20334 24-256 limits assumed): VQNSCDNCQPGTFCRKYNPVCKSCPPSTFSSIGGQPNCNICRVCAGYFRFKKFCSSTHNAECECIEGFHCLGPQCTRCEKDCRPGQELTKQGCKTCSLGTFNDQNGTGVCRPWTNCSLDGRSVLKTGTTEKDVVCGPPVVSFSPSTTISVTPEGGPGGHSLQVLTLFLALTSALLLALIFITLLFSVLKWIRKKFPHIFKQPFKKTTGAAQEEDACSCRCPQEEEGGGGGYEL
Procedure: (§6) Cells were incubated for 30 min at 4° C., washed twice with 200 μL/well FACS-buffer and resuspended for fixation with 50 μL/well DPBS containing 1% (v/v) formaldehyde. The next day cells were resuspended in 200 μL/well FACS buffer and acquired using the 2-laser Cantoll (BD Bioscience with DIVA software) or 5-laser Fortessa (BD Bioscience with DIVA software). Gates were set on CD8⁺ and CD4⁺ T cells and the median fluorescence intensity (MFI) of the secondary detection antibody was used to analyze binding of primary antibodies. Using Graph Pad Prism (Graph Pad Software Inc.) data was baselined by subtracting the blank values (no primary antibody added) and the EC₅₀ values were calculated using non-linear regression curve fit (robust fit).
In test [22] the target is T13, mouse 4-1BB on activated mouse …. Nature of the test: flow cytometry, activated murine CD4 T cells.
Procedure: as §6

B1: 8H9 P329GLALA IgG1 (antibody, V domains shown)
VH: QVQLVQSGAEVKKPGSSVKVSCKASGGTFSSYAISWVRQAPGQGLEWMGGIIPIFGTANYAQKFQGRVTITADKSTSTAYMELSSLRSEDTAVYYCAREYGWMDYWGQGTTVTVSS
VL: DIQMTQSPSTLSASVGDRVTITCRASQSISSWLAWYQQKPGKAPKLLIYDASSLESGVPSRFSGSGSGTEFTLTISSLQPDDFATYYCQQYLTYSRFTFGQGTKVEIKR
notes: anti-OX40; also called clone 8H9 hu IgG1
On to B1, for which the results for the Kd in test [1], in test [4] and in [5] were 28 nM, 670 nM and 31 nM, respectively. Further, the figures for the off-rate (koff) in test [1], in test [4] and in test [5] were 0.0045 s⁻¹, 0.096 s⁻¹ and 0.002 s⁻¹, respectively. For the same molecule, the kon in test [1] was 160000 M⁻¹ s⁻¹; in [4] it was 140000 M⁻¹ s⁻¹; in test [5], 65000 M⁻¹ s⁻¹. Also, the “EC50 of NFκB activation in HeLa_hOx40_NFκB_luc1 reporter cells with secondary anti-human IgG Fcγ antibody” value in test [2] stood at 0.66 nM. Besides, the binding result in test [3] is recorded as “no binding”. Also, the EC50 in [6] and in [8] was 0.59 nM throughout. Besides, the “EC50 of rescuing suboptimal TCR stimulation with plate-immobilized anti-OX40 binder (preactivated human CD4 T cells)” value in [7] turned out to be 0.003 nM.

B2: 8A06 P329GLALA IgG1 (antibody, V domains shown)
VH: B1 VH with E99G, G101Y, W102A, M103I
VL: SSELTQDPAVSVALGQTVRITCQGDSLRSYYASWYQQKPGQAPVLVIYGKNNRPSGIPDRFSGSSSGNTASLTITGAQAEDEADYYCNSPQTSGSAVFGGGTKLTVLG
notes: also called anti-GITR 8A06 IgG
With B2, the Kd amounted to 29 nM in [9] and 1200 nM in [10]. For the same molecule, the binding result in test [11] is given as “no binding (tested: 0.2 to 200 nM IgG)”.

B3: 8H9/FAP P329GLALA IgG1 2+2 (bispecific antibody)
heavy: not shown
light 1: not shown
light 2: EIVLTQSPGTLSLSPGERATLSCRASQSVSRSYLAWYQQKPGQAPRLLIIGASTRATGIPDRFSGSGSGTDFTLTISRLEPEDFAVYYCQQGQVIPPTFGQGTKVEIKSSASTKGPSVFPLAPSSKSTSGGTAALGCLVKDYFPEPVTVSWNSGALTSGVHTFPAVLQSSGLYSLSSVVTVPSSSLGTQTYICNVNHKPSNTKVDKKVEPKSCD
notes: also called bispecific bivalent 2+2 construct 8H9; 8H9 FAP 2+2
For B3, the results for the EC50 in test [12] and in [8] were 2.88 nM and 0.93 nM, respectively.

B4: 28H1 IgG (antibody, V domains shown)
VH: EVQLLESGGGLVQPGGSLRLSCAASGFTFSSHAMSWVRQAPGKGLEWVSAIWASGEQYYADSVKGRFTISRDNSKNTLYLQMNSLRAEDTAVYYCAKGWLGNFDYWGQGTLVTVSS
VL: EIVLTQSPGTLSLSPGERATLSCRASQSVSRSYLAWYQQKPGQAPRLLIIGASTRATGIPDRFSGSGSGTDFTLTISRLEPEDFAVYYCQQGQVIPPTFGQGTKVEIK
notes: anti-FAP control IgG
For the molecule B4, the values for the Kd in test [13] and in test [14] were 0.00049 nM and 0.933 nM, respectively.

B5: 49B4 P329GLALA IgG1 (antibody, V domains shown)
VH: QVQLVQSGAEVKKPGSSVKVSCKASGGTFSSYAISWVRQAPGQGLEWMGGIIPIFGTANYAQKFQGRVTITADKSTSTAYMELSSLRSEDTAVYYCAREYYRGPYDYWGQGTTVTVSS
VL: DIQMTQSPSTLSASVGDRVTITCRASQSISSWLAWYQQKPGKAPKLLIYDASSLESGVPSRFSGSGSGTEFTLTISSLQPDDFATYYCQQYSSQPYTFGQGTKVEIKR
notes: anti-OX40; sometimes misprinted 49B9; also called 49B4 IgG1; hu IgG1 (49B4)
Consider B5, for which the Kd in test [1] amounted to 510 nM; in test [4], 350 nM; in [5], 460 nM. Besides, the koff in test [1] was 0.13 s⁻¹; in test [4], 0.038 s⁻¹; in test [5] it was 0.67 s⁻¹. The results for the kon in [1], in test [4] and in test [5] were 250000 M⁻¹ s⁻¹, 110000 M⁻¹ s⁻¹ and 1.4e+06 M⁻¹ s⁻¹, respectively. In addition, the EC50 in [15] was 907 nM; in test [16] it was 0.05 nM; in test [17], 12.7 nM; in [6] it was 4.19 nM. For the same molecule, the “EC50 of NFκB activation in HeLa_hOx40_NFκB_luc1 reporter cells with secondary anti-human IgG Fcγ antibody” value in [2] turned out to be 2.42 nM. For the same molecule, the binding result in test [3] is on record as “no binding”. In addition, in test [7], the “EC50 of rescuing suboptimal TCR stimulation with plate-immobilized anti-OX40 binder (preactivated human CD4 T cells)” value was determined as 0.591 nM.

B6: OX40(49B4)/FAP(4B9) P329GLALA IgG1 1+1 (bispecific antibody, V domains shown)
VH 1: B5 VH
VL 1: DIQMTQSPSTLSASVGDRVTITCRASQSISSWLAWYQQKPGKAPKLLIYDASSLESGVPSRFSGSGSGTEFTLTISSLQPDDFATYYCQQYSSQPYTFGQGTKVEIK
VH 2: EVQLLESGGGLVQPGGSLRLSCAASGFTFSSYAMSWVRQAPGKGLEWVSAIIGSGASTYYADSVKGRFTISRDNSKNTLYLQMNSLRAEDTAVYYCAKGWFGGFNYWGQGTLVTVSS
VL 2: B4 VL with S30T, R31S, I50N, G51V, A52G, T54R, Q93I, V94M, I95L
notes: only variable domains of 49B4 and 4B9; human IgG1 P329G LALA
In the case of B6, the Kd in [18] was 4.79 nM; in test [19], 0.532 nM; in [20], 0.752 nM.

B7: 20G2 mu IgG1 κ wt (antibody, V domains shown)
VH: QVQLVQSGAEVKKPGSSVKVSCKASGGTFSSYAISWVRQAPGQGLEWMGGIIPIFGTANYAQKFQGRVTITADKSTSTAYMELSSLRSEDTAVYYCARSYYWESYPFDYWGQGTTVTVSS
VL: DIQMTQSPSTLSASVGDRVTITCRASQSISSWLAWYQQKPGKAPKLLIYDASSLESGVPSRFSGSGSGTEFTLTISSLQPDDFATYYCQQQHSYYTFGQGTKVEIK
notes: mouse IgG1 kappa wild type; also called 20G2 mouse IgG1 wildtype
B7: the EC50 was determined as 18.5 nM in test [21] and 9.92 nM in test [22].

B8: 6C8 P329GLALA IgG1 (antibody, V domains shown)
VH: QVTLRESGPALVKPTQTLTLTCTFSGFSLSTSGMGVGWIRQPPGKALEWLAHIWWDDDKYYQPSLKSRLTISKDTSKNQVVLTMTNMDPVDTATYYCARTRRYFPFAYWGQGTLVTVSS
VL: EIVMTQSPATLSVSPGERATLSCKASQNVGTNVAWYQQKPGQAPRLLIYSASYRYSGIPARFSGSGSGTEFTLTISSLQSEDFAVYYCQQYNTDPLTFGGGTKVEIKR
notes: prepared according to WO 2006/105021; also called benchmark antibody 6C8
Turning to B8, in test [9], the Kd was 30 nM, the koff came to 0.0011 s⁻¹ and the kon is 38000 M⁻¹ s⁻¹. Further, in [10], the Kd worked out at 190 nM, the koff was found to be 0.014 s⁻¹ and the kon is 73000 M⁻¹ s⁻¹. Moreover, the binding result in [11] is reported as “no binding (tested: 0.2 to 200 nM IgG)”.

Values taken from patent publication US20220073646A1 (Hoffmann-La Roche, published 2022).
